# Experimental data reported in IntAct's records for PubMed 19262565.
# B1: Histone-lysine N-methyltransferase SETD7 (Homo sapiens), Q8WTS6 (parent)
# chain: MDSDDEMVEEAVEGHLDDDGLPHGFCTVTYSSTDRFEGNFVHGEKNGRGKFFFFDGSTLEGYYVDDALQGQGVYTYEDGGVLQGTYVDGELNGPAQEYDTDGRLIFKGQYKDNIRHGVCWIYYPDGGSLVGEVNEDGEMTGEKIAYVYPDERTALYGKFIDGEMIEGKLATLMSTEEGRPHFELMPGNSVYHFDKSTSSCISTNALLPDPYESERVYVAESLISSAGEGLFSKVAVGPNTVMSFYNGVRITHQEVDSRDWALNGNTLSLDEETVIDVPEPYNHVSKYCASLGHKANHSFTPNCIYDMFVHPRFGPIKCIRTLRAVEADEELTVAYGYDHSPPGKSGPEAPEWYQVELKAFQATQQK
# Variants of: B1
# Settings: with tf65_human RELA
row,Variant,effect of a mutation on the interaction
1,H297A,disrupting interaction
